# Data published in US20260151494A1.
# Changes are numbered by the printed parent chain.
# B1: CD71-binding FN3 domain SEQ ID NO: 283 (designed binder)
# chain: MSLPAPKNLVVSRVTEDSARLSWTAPDAAFDSFEIAYQELSLWGEAIVLTVPGSERSYDLTGLKPGTEYYVHIGGVKGGIWSSPLSAYSTT
# B2: CD71-binding FN3 domain SEQ ID NO: 273 (designed binder)
# chain: MLPAPKNLVVSRVTEDSARLSWTAPDAAFDSFEISYWEHTFNGEAIILFVPGSERSYDLTGLKPGTEYYVTIGGVKGGAWSPPLWAEFTT
# B3: CD71-binding FN3 domain SEQ ID NO: 267 (designed binder)
# chain: MSLPAPKNLVVSRVTEDSARLSWTAPDAAFDSFEISYWEHTFNGEAIILFVPGSERSYDLTGLKPGTEYYVTIGGVKGGAWSPPLWAEFTT
# B4: CD71-binding FN3 domain SEQ ID NO: 265 (designed binder)
# chain: MSLPAPKNLVVSRVTEDSARLSWTAPDAAFDSFFIGYLEPQPPGEAISLYVPGSERSYDLTGLKPGTEYNVTIQGVKGGFPSDPLVAHFTT
# B5: CD71-binding FN3 domain SEQ ID NO: 294 (designed binder)
# chain: B4 chain with P43L, S48H, Y50F, D83E, V86I, H88S
# B6: CD71-binding FN3 domain SEQ ID NO: 270 (designed binder)
# chain: B4 chain with S48H, D83E, V86I, H88N, F89S
# B7: CD71-binding FN3 domain SEQ ID NO: 266 (designed binder)
# chain: B4 chain with S48Y, Y50L, D83L, H88T
# B8: CD71-binding FN3 domain SEQ ID NO: 279 (designed binder)
# chain: B4 chain with S48H, F80N, P81W, D83A, V86S, H88I
# B9: CD71-binding FN3 domain SEQ ID NO: 290 (designed binder)
# chain: B4 chain with S48H, D83E, H88T
# B10: CD71-binding FN3 domain SEQ ID NO: 281 (designed binder)
# chain: B4 chain with S48A, D83E, V86I, H88N
# B11: CD71-binding FN3 domain SEQ ID NO: 295 (designed binder)
# chain: B4 chain with S48D, D83E, H88T
# B12: CD71-binding FN3 domain SEQ ID NO: 293 (designed binder)
# chain: B4 chain with S48D, D83H, H88T
# B13: CD71-binding FN3 domain SEQ ID NO: 282 (designed binder)
# chain: MSLPAPKNLVVSRVTEDSARLSWTAPDAAFDSFDIGYFELTWYGEAIVLTVPGSERSYDLTGLKPGTEYWVSIGGVKGGRFSEPLYARFTT
# B14: CD71-binding FN3 domain SEQ ID NO: 268 (designed binder)
# chain: MSLPAPKNLVVSRVTEDSARLSWTAPDAAFDSFEIGYFENLYLGEAIVLTVPGSERSYDPTGLKPGTEYWVQIGGVKGGNWSAPLSAIFTT
# B15: CD71-binding FN3 domain SEQ ID NO: 286 (designed binder)
# chain: B14 chain with G36V, F38A, N40P, L41V, Y42R, L43F, P60L, N80E, A83S
# B16: CD71-binding FN3 domain SEQ ID NO: 271 (designed binder)
# chain: B14 chain with V14I, F38W, L41A, L43K, P60L, W70V, Q72F, N80V, A83V
# B17: CD71-binding FN3 domain SEQ ID NO: 272 (designed binder)
# chain: B14 chain with G36A, F38G, N40A, L41A, L43D, V48A, T50L, P60L
# B18: CD71-binding FN3 domain SEQ ID NO: 296 (designed binder)
# chain: B13 chain with R80I, F81W, E83S, Y86S, R88I
# B19: CD71-binding FN3 domain SEQ ID NO: 269 (designed binder)
# chain: B14 chain with L41D, L43F, P60L, W70V, Q72F
# B20: CD71-binding FN3 domain SEQ ID NO: 278 (designed binder)
# chain: B14 chain with Y58H, P60L
# B21: CD71-binding FN3 domain SEQ ID NO: 275 (designed binder)
# chain: B14 chain with P60L, S86V, I88E
# B22: CD71-binding FN3 domain SEQ ID NO: 289 (designed binder)
# chain: B14 chain with G36A, N40I, L41A, Y42W, P60L, N80A, W81Y, A83T
# B23: CD71-binding FN3 domain SEQ ID NO: 284 (designed binder)
# chain: B14 chain with F38W, L41A, L43K, P60L, W70M, Q72F, N80V, A83V
# B24: CD71-binding FN3 domain SEQ ID NO: 292 (designed binder)
# chain: B14 chain with F38W, L41A, L43K, P60L, W70V, Q72F, N80V, A83V, P84S
# B25: CD71-binding FN3 domain SEQ ID NO: 274 (designed binder)
# chain: B14 chain with G36V, F38W, N40Q, L41V, Y42G, L43V, P60L, N80G, W81F, A83E
# B26: CD71-binding FN3 domain SEQ ID NO: 276 (designed binder)
# chain: B14 chain with G36A, N40L, L41D, L43V, P60L, N80T, A83G, T91I
# B27: CD71-binding FN3 domain SEQ ID NO: 280 (designed binder)
# chain: B14 chain with P26L, P60L
# B28: CD71-binding FN3 domain SEQ ID NO: 277 (designed binder)
# chain: B13 chain with D34E, W42Y, S72Q, R80G, Y86S, R88I
# B29: CD71-binding FN3 domain SEQ ID NO: 285 (designed binder)
# chain: B14 chain with P26T, F38W, L41A, L43K, P60L, W70V, Q72F, N80V, A83V
# Biological target: apical domain of CD71 (Screen 3: 'cynomolgus apical domain of human CD71') (cynomolgus (as paragraph 454 words it; ambiguous))
# Assay: primary ELISA
row,RLU,Binder
1,6.14e+06 RLU,B1
2,6.05e+06 RLU,B2
3,6.05e+06 RLU,B3
4,6.76e+06 RLU,B4
5,7.4e+06 RLU,B5
6,6.3e+06 RLU,B6
7,7.41e+06 RLU,B7
8,5.54e+06 RLU,B8
9,6.87e+06 RLU,B9
10,6.93e+06 RLU,B10
11,6.71e+06 RLU,B11
12,6.72e+06 RLU,B12
13,4.85e+06 RLU,B13
14,5.8e+06 RLU,B14
15,5.31e+06 RLU,B15
16,4.94e+06 RLU,B16
17,4.66e+06 RLU,B17
18,4.82e+06 RLU,B18
19,6.01e+06 RLU,B19
20,5.1e+06 RLU,B20
21,5.44e+06 RLU,B21
22,5.2e+06 RLU,B22
23,4.41e+06 RLU,B23
24,5.29e+06 RLU,B24
25,4.64e+06 RLU,B25
26,4.54e+06 RLU,B26
27,4.97e+06 RLU,B27
28,5.75e+06 RLU,B28
29,5.13e+06 RLU,B29

# Biological target: apical domain of CD71 (Screen 3: 'cynomolgus apical domain of human CD71') (cynomolgus (as paragraph 454 words it; ambiguous))
# Assay: primary ELISA, RLU ratio to HSA
row,Apical domain:HSA,Binder
1,229,B1
2,1060,B2
3,178,B3
4,488,B4
5,245,B5
6,74,B6
7,206,B7
8,680,B8
9,158,B9
10,413,B10
11,474,B11
12,605,B12
13,365,B13
14,188,B14
15,262,B15
16,347,B16
17,476,B17
18,141,B18
19,481,B19
20,641,B20
21,515,B21
22,112,B22
23,363,B23
24,355,B24
25,581,B25
26,90,B26
27,160,B27
28,383,B28
29,368,B29
